Data taken from paper PMC11398520 (bioRxiv, 2024).

B1: PS2 assembly domain (PS2^AD; residues 30 to 483) (domain or fragment)
chain: AQETNPTFNITNGFNDADGSTIQPVGPVNHTEETLRDLTDSTGAYLEEFQNGTVEEIVEAYLQVQASADGFDPSEQAAYEAFEAARVRASQELAASAETITKTRESVAYALKVDQEATAAFEAYRNALRDAAISINPDGSINPDTSINLLIDAANAANRTDRAEIEDYAHLYTQTDIALETPQLAYAFQDLKALQAEVDADFEWLGEFGIDQEDGNYVQRYHLPAVEALKAEVDARVAAIEPLRADSIAKNLEAQKSDVLVRQLFLERATAQRDTLRVVEAIFSTSARYVELYENVENVNVENKTLRQHYSALIPNLFIAAVANISELNAADAEAAAYYLHWDTDLATNDEDEAYYKAKLDFAIETYAKILFNGEVWQEPLAYVQNLDAGARQEAADREAARAADEAYRAEQLRIAQEAADAQKAIAEALAKEAEGNNDNSSDNTETGSSDIGS

Tests used:
[1] = molecular target: PS2 S-layer protein of Corynebacterium glutamicum (ex-vivo S-layer) (Corynebacterium glutamicum); assay: cryo-EM structure
negative-stain EM = molecular target: the molecule itself; assay: negative-stain EM

Molecule | stoichiometry N [1] | binding result (negative-stain EM)
PS2 S-layer protein of Corynebacterium glutamicum (ex-vivo S-layer) (natural protein) | 6 | 
B1 |  | binds
